The binders below were run against T1, CTNI quality control recombinant protein (PK2-CTNI-1, 170120, produced by the applicant) (human, UniProt P19429 2-210, limits assumed) (assay: AMC sensor kinetics, antibody captured, cTnI analyte).
T1 construct: also called cardiac troponin I
Protocol: Using the AMC sensor, the purified antibody was diluted with PBST to 10 μg/ml, and the CTNI quality control recombinant protein (PK2-CTNI-1, 170120, produced by the applicant) was serially diluted with PBST to 400 nmol/ml, 200 nmol/ml, 100 nmol/ml, 50 nmol/ml, 25 nmol/ml, 12.5 nmol/ml, 6.25 nmol/ml, and 0 nmol/ml.

T1 sequence (P19429 2-210 limits assumed): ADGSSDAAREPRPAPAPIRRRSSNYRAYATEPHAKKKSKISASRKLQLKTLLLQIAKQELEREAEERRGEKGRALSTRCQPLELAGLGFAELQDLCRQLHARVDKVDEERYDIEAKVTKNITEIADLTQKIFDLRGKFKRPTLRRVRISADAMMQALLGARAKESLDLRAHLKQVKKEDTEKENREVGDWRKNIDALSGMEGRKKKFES

Row | Binder | Kd | koff | kon
1 | Mutation 1-27 (antibody, V domains shown, built as for Mutation 1) VH: EVQLQQSGAELVKPGASVKLSCTASGFNIKDYYMHWMKQRTEQGLDWIGRIDPEDAETRYAPEFQGKATITADTSSNTAYLQLSTLTSEDTAVYYCARYYSSYIPFVYWGQGTLVTASA VL: DVVMTQTPLSLSVSLGDQASISCRSSQSLIYSNRHTYLHWYLQKPGQSPKLLIFQISNRFSGVPDRFSGSGSGTDFTLKINRVEAEDLGVYFCSQSTHIPYTFGSGTKLEIKR | 0.85 nM | 0.000844 s⁻¹ | 993000 M⁻¹ s⁻¹
2 | Mutation 1-28 (antibody, V domains shown, built as for Mutation 1) VH: EVQLQQSGAELVKPGASVKLSCTASGFNLKDYFMHWMKQRTEQGLDWIGRIDPEDAETKYAPEFQGKATITADTSSNTAYLQLSTLTSEDTAVYYCARYYSSYLPFVYWGQGTLVTASA VL: DVVMTQTPLSLSVSLGDQASISCRSSQSLIYSNRHTYLHWYLQKPGQSPKLLIFQLSNRFSGVPDRFSGSGSGTDFTLKINRVEAEDLGVYFCSQSTHLPFTFGSGTKLEIKR | 0.189 nM | 0.000101 s⁻¹ | 536000 M⁻¹ s⁻¹
3 | Mutation 1-29 (antibody, V domains shown, built as for Mutation 1) VH: EVQLQQSGAELVKPGASVKLSCTASGFNLKDYYMHWMKQRTEQGLDWIGRIDPEDGETKYAPEFQGKATITADTSSNTAYLQLSTLTSEDTAVYYCARYYSSYVPFVYWGQGTLVTASA VL: DVVMTQTPLSLSVSLGDQASISCRSSQSLLYSNRHTYLHWYLQKPGQSPKLLIFQVSNRFSGVPDRFSGSGSGTDFTLKINRVEAEDLGVYFCSQSTHLPYTFGSGTKLEIKR | 0.698 nM | 0.000115 s⁻¹ | 165000 M⁻¹ s⁻¹
4 | Mutation 1-30 (antibody, V domains shown, built as for Mutation 1) VH: EVQLQQSGAELVKPGASVKLSCTASGFNIKDYFMHWMKQRTEQGLDWIGRIDPEDAETRYAPEFQGKATITADTSSNTAYLQLSTLTSEDTAVYYCARYYSSYLPFVYWGQGTLVTASA VL: DVVMTQTPLSLSVSLGDQASISCRSSQSIIYSNRHTYLHWYLQKPGQSPKLLIFQLSNRFSGVPDRFSGSGSGTDFTLKINRVEAEDLGVYFCSQSTHIPFTFGSGTKLEIKR | 0.669 nM | 0.000362 s⁻¹ | 541000 M⁻¹ s⁻¹
5 | Mutation 1-32 (antibody, V domains shown, built as for Mutation 1) VH: EVQLQQSGAELVKPGASVKLSCTASGFNLKDYFMHWMKQRTEQGLDWIGRIDPEDGETRYAPEFQGKATITADTSSNTAYLQLSTLTSEDTAVYYCARYYSSYIPFVYWGQGTLVTASA VL: DVVMTQTPLSLSVSLGDQASISCRSSQSILYSNRHTYLHWYLQKPGQSPKLLIFQISNRFSGVPDRFSGSGSGTDFTLKINRVEAEDLGVYFCSQSTHLPFTFGSGTKLEIKR | 0.509 nM | 8.4e-05 s⁻¹ | 165000 M⁻¹ s⁻¹
6 | Mutation 1-33 (antibody, V domains shown, built as for Mutation 1) VH: EVQLQQSGAELVKPGASVKLSCTASGFNLKDYYMHWMKQRTEQGLDWIGRIDPEDAETKYAPEFQGKATITADTSSNTAYLQLSTLTSEDTAVYYCARYYSSYVPFVYWGQGTLVTASA VL: DVVMTQTPLSLSVSLGDQASISCRSSQSLIYSNRHTYLHWYLQKPGQSPKLLIFQVSNRFSGVPDRFSGSGSGTDFTLKINRVEAEDLGVYFCSQSTHIPFTFGSGTKLEIKR | 0.986 nM | 0.000881 s⁻¹ | 894000 M⁻¹ s⁻¹
7 | Mutation 1-35 (antibody, V domains shown, built as for Mutation 1) VH: EVQLQQSGAELVKPGASVKLSCTASGFNIKDYYMHWMKQRTEQGLDWIGRIDPEDAETRYAPEFQGKATITADTSSNTAYLQLSTLTSEDTAVYYCARYYSSYLPFVYWGQGTLVTASA VL: DVVMTQTPLSLSVSLGDQASISCRSSQSIIYSNRHTYLHWYLQKPGQSPKLLIFQLSNRFSGVPDRFSGSGSGTDFTLKINRVEAEDLGVYFCSQSTHLPYTFGSGTKLEIKR | 0.574 nM | 0.000276 s⁻¹ | 480000 M⁻¹ s⁻¹
8 | Mutation 1-36 (antibody, V domains shown, built as for Mutation 1) VH: EVQLQQSGAELVKPGASVKLSCTASGFNLKDYYMHWMKQRTEQGLDWIGRIDPEDGETRYAPEFQGKATITADTSSNTAYLQLSTLTSEDTAVYYCARYYSSYLPFVYWGQGTLVTASA VL: DVVMTQTPLSLSVSLGDQASISCRSSQSIIYSNRHTYLHWYLQKPGQSPKLLIFQLSNRFSGVPDRFSGSGSGTDFTLKINRVEAEDLGVYFCSQSTHIPYTFGSGTKLEIKR | 0.809 nM | 0.000452 s⁻¹ | 559000 M⁻¹ s⁻¹
9 | Mutation 1-39 (antibody, V domains shown, built as for Mutation 1) VH: EVQLQQSGAELVKPGASVKLSCTASGFNLKDYFMHWMKQRTEQGLDWIGRIDPEDGETRYAPEFQGKATITADTSSNTAYLQLSTLTSEDTAVYYCARYYSSYVPFVYWGQGTLVTASA VL: DVVMTQTPLSLSVSLGDQASISCRSSQSLIYSNRHTYLHWYLQKPGQSPKLLIFQVSNRFSGVPDRFSGSGSGTDFTLKINRVEAEDLGVYFCSQSTHLPYTFGSGTKLEIKR | 0.756 nM | 0.000469 s⁻¹ | 620000 M⁻¹ s⁻¹
10 | Mutation 1-40 (antibody, V domains shown, built as for Mutation 1) VH: EVQLQQSGAELVKPGASVKLSCTASGFNLKDYYMHWMKQRTEQGLDWIGRIDPEDGETKYAPEFQGKATITADTSSNTAYLQLSTLTSEDTAVYYCARYYSSYIPFVYWGQGTLVTASA VL: DVVMTQTPLSLSVSLGDQASISCRSSQSLLYSNRHTYLHWYLQKPGQSPKLLIFQISNRFSGVPDRFSGSGSGTDFTLKINRVEAEDLGVYFCSQSTHLPFTFGSGTKLEIKR | 0.818 nM | 0.000164 s⁻¹ | 200000 M⁻¹ s⁻¹
11 | Mutation 1-41 (antibody, V domains shown, built as for Mutation 1) VH: EVQLQQSGAELVKPGASVKLSCTASGFNIKDYYMHWMKQRTEQGLDWIGRIDPEDGETRYAPEFQGKATITADTSSNTAYLQLSTLTSEDTAVYYCARYYSSYIPFVYWGQGTLVTASA VL: DVVMTQTPLSLSVSLGDQASISCRSSQSILYSNRHTYLHWYLQKPGQSPKLLIFQISNRFSGVPDRFSGSGSGTDFTLKINRVEAEDLGVYFCSQSTHIPYTFGSGTKLEIKR | 0.723 nM | 0.000393 s⁻¹ | 544000 M⁻¹ s⁻¹
12 | Mutation 1-42 (antibody, V domains shown, built as for Mutation 1) VH: EVQLQQSGAELVKPGASVKLSCTASGFNLKDYFMHWMKQRTEQGLDWIGRIDPEDGETKYAPEFQGKATITADTSSNTAYLQLSTLTSEDTAVYYCARYYSSYLPFVYWGQGTLVTASA VL: DVVMTQTPLSLSVSLGDQASISCRSSQSLLYSNRHTYLHWYLQKPGQSPKLLIFQLSNRFSGVPDRFSGSGSGTDFTLKINRVEAEDLGVYFCSQSTHLPYTFGSGTKLEIKR | 0.347 nM | 0.00018 s⁻¹ | 520000 M⁻¹ s⁻¹
13 | Mutation 1-43 (antibody, V domains shown, built as for Mutation 1) VH: EVQLQQSGAELVKPGASVKLSCTASGFNLKDYYMHWMKQRTEQGLDWIGRIDPEDAETRYAPEFQGKATITADTSSNTAYLQLSTLTSEDTAVYYCARYYSSYVPFVYWGQGTLVTASA VL: DVVMTQTPLSLSVSLGDQASISCRSSQSIIYSNRHTYLHWYLQKPGQSPKLLIFQVSNRFSGVPDRFSGSGSGTDFTLKINRVEAEDLGVYFCSQSTHIPYTFGSGTKLEIKR | 0.651 nM | 7.75e-05 s⁻¹ | 119000 M⁻¹ s⁻¹
14 | Mutation 1-45 (antibody, V domains shown, built as for Mutation 1) VH: EVQLQQSGAELVKPGASVKLSCTASGFNIKDYYMHWMKQRTEQGLDWIGRIDPEDGETKYAPEFQGKATITADTSSNTAYLQLSTLTSEDTAVYYCARYYSSYVPFVYWGQGTLVTASA VL: DVVMTQTPLSLSVSLGDQASISCRSSQSLIYSNRHTYLHWYLQKPGQSPKLLIFQVSNRFSGVPDRFSGSGSGTDFTLKINRVEAEDLGVYFCSQSTHIPFTFGSGTKLEIKR | 0.168 nM | 3.24e-05 s⁻¹ | 193000 M⁻¹ s⁻¹
15 | Mutation 1-46 (antibody, V domains shown, built as for Mutation 1) VH: EVQLQQSGAELVKPGASVKLSCTASGFNLKDYFMHWMKQRTEQGLDWIGRIDPEDAETRYAPEFQGKATITADTSSNTAYLQLSTLTSEDTAVYYCARYYSSYIPFVYWGQGTLVTASA VL: DVVMTQTPLSLSVSLGDQASISCRSSQSLIYSNRHTYLHWYLQKPGQSPKLLIFQISNRFSGVPDRFSGSGSGTDFTLKINRVEAEDLGVYFCSQSTHIPFTFGSGTKLEIKR | 0.723 nM | 0.00027 s⁻¹ | 373000 M⁻¹ s⁻¹
16 | Mutation 1-47 (antibody, V domains shown, built as for Mutation 1) VH: EVQLQQSGAELVKPGASVKLSCTASGFNLKDYYMHWMKQRTEQGLDWIGRIDPEDAETKYAPEFQGKATITADTSSNTAYLQLSTLTSEDTAVYYCARYYSSYVPFVYWGQGTLVTASA VL: DVVMTQTPLSLSVSLGDQASISCRSSQSLLYSNRHTYLHWYLQKPGQSPKLLIFQVSNRFSGVPDRFSGSGSGTDFTLKINRVEAEDLGVYFCSQSTHLPFTFGSGTKLEIKR | 0.81 nM | 0.000507 s⁻¹ | 626000 M⁻¹ s⁻¹
17 | Mutation 1-48 (antibody, V domains shown, built as for Mutation 1) VH: EVQLQQSGAELVKPGASVKLSCTASGFNIKDYFMHWMKQRTEQGLDWIGRIDPEDGETRYAPEFQGKATITADTSSNTAYLQLSTLTSEDTAVYYCARYYSSYIPFVYWGQGTLVTASA VL: DVVMTQTPLSLSVSLGDQASISCRSSQSIIYSNRHTYLHWYLQKPGQSPKLLIFQISNRFSGVPDRFSGSGSGTDFTLKINRVEAEDLGVYFCSQSTHLPYTFGSGTKLEIKR | 0.956 nM | 0.00065 s⁻¹ | 680000 M⁻¹ s⁻¹
18 | Mutation 1-49 (antibody, V domains shown, built as for Mutation 1) VH: EVQLQQSGAELVKPGASVKLSCTASGFNIKDYYMHWMKQRTEQGLDWIGRIDPEDAETRYAPEFQGKATITADTSSNTAYLQLSTLTSEDTAVYYCARYYSSYLPFVYWGQGTLVTASA VL: DVVMTQTPLSLSVSLGDQASISCRSSQSILYSNRHTYLHWYLQKPGQSPKLLIFQLSNRFSGVPDRFSGSGSGTDFTLKINRVEAEDLGVYFCSQSTHIPYTFGSGTKLEIKR | 0.538 nM | 0.000298 s⁻¹ | 553000 M⁻¹ s⁻¹
19 | Mutation 1-51 (antibody, V domains shown, built as for Mutation 1) VH: EVQLQQSGAELVKPGASVKLSCTASGFNLKDYYMHWMKQRTEQGLDWIGRIDPEDGETRYAPEFQGKATITADTSSNTAYLQLSTLTSEDTAVYYCARYYSSYLPFVYWGQGTLVTASA VL: DVVMTQTPLSLSVSLGDQASISCRSSQSLIYSNRHTYLHWYLQKPGQSPKLLIFQLSNRFSGVPDRFSGSGSGTDFTLKINRVEAEDLGVYFCSQSTHLPYTFGSGTKLEIKR | 0.765 nM | 7.54e-05 s⁻¹ | 98600 M⁻¹ s⁻¹

Reference: patent publication US20210340231A1 (FAPON BIOTECH, published 2021)
